Test results from US10077295B2, “Glycoproteins having lipid mobilizing properties and therapeutic uses thereof” (Aston University, priority 2010, dated 2018).

Experiments:
[1] = tested on: ob/ob mice; assay: Glucose tolerance test in ob/ob mice after 3 days of ZAG; type: in vivo, mouse
From the text: FIG. 2A is a graphical diagram showing glucose tolerance of ob/ob mice treated with ZAG. Plasma glucose levels in ob/ob mice in the fed state either treated with ZAG (▪) or PBS (♦) for 3 days after […]. p<0.001 from PBS. Blood samples were removed from the tail vein at intervals after glucose administration and used for the measurement of glucose and insulin.
FIG. 2B is a graphical diagram showing plasma insulin levels in ob/ob mice treated with ZAG after oral administration of glucose (1 g/kg). p<0.001 from PBS.
To investigate this, a glucose tolerance test was performed, on fed animals, after 3 days of ZAG administration (FIG. 2A). […] The glucose uptake in gastrocnemius muscle of ZAG treated mice was greater than the response to insulin in non-treated animals.

[2] = tested on: ob/ob mice; assay: Oral (p.o.) administration of rhZAG to ob/ob mice; type: in vivo, mouse
Method: 50 ug per day of rhZAG was administered p.o. to Aston ob/ob mice. Oral dosing was achieved by assuming 5 mL/day consumption of water, and adding ZAG to achieve 50 ug per day dose based on that assumption. No attempt was made to correct for variations of consumption on a given day.
Experiment One (8 Day Oral ZAG Study): 50 ug of ZAG was administered p.o. daily in drinking water.
Experiment Two (8 Day Oral ZAG Plus Propranolol Study): 50 ug of ZAG administered p.o. daily, with and without propranolol. Propanolol blocks all of the effects of ZAG including decrease in body weight and blood glucose in the tolerance test, also blocking the rise in body temperature and the rise in plasma mouse ZAG, confirming that this occurs through a beta adrenergic receptor. […] It appears to do this by preventing the rise in mouse ZAG in the serum after oral administration of the rhZAG.
Experiment Three (Oral Study): ZAG administered p.o. daily over an extended time frame, with a recovery group split from the treated group beginning at 30 days (data not shown).

[3] = molecular target: T1, human β2-AR (Homo sapiens, UniProt P07550); assay: [125I] ZAG binding to crude membranes of CHO-K1 β2 cells; conditions: single freeze/thaw cycle
T1 construct: host or cells: CHO-K1
Method: [^125I] labelling of ZAG. One iodo bead that had been washed and dried was incubated with Na [^125I] (1 mCi per 100 μg protein) for 5 min in PBS, then ZAG (100 μg protein) was added and left for a further 15 min. The reaction was terminated by removal of the iodo bead, while free Na [^125I] was removed using a Sephadex G25 column eluted with 0.1MNaI. The [^125I] ZAG was concentrated against PBS using a Microcon microconcentrator with a filter cut-off of Mr 10,000. The specific activity of the [^125I] ZAG was 8 Cimg protein^1.
For binding studies cells were sonicated in 2 mM Tris HCl, pH7.5, containing […] and crude total membranes were pelleted by centrifugation (13,000 g; 15 min) at 4° C. Binding studies were carried out at 37° C. by incubating membranes (500 μg protein) in 0.4 ml 50 mM Tris HCl, pH 7.5, containing 0.5 mM MgCl2 for 60 min with various concentrations of [^125I] ZAG (3,000 to 15,000 cpm) in the absence or presence of 100 μM non-labelled ZAG. The membranes were then precipitated by centrifugation at 13000 g for 20 min, the supernatant was removed and the [^125I] bound to the pellet was quantitated using a Packard Corbra Model 5005 Auto-gamma counter. Binding was analysed using non-linear regression analysis (GraphPad Prism, Version 5.04). Specific binding was regarded as the amount of labelled ZAG displaced by non-radioactive ZAG.

[4] = tested on: ob/ob mice; assay: ob/ob mice treated with ZAG, 21 day study; type: in vivo, mouse
Method: FIG. 7A is a graphical diagram showing weight loss of the ob/ob mice during the 21 day study. ZAG was injected at days 1, 4, 5, 8, 13, 16, 18, and 19; PBS was injected at the same time points.
Animals—Mice. Homozygous obese (ob/ob) mice from the colony maintained at Aston University were used in the present study. The origin and characteristics of Aston ob/ob mice have been previously described. Male mice (20-21 weeks old, weight 90-100 g) were grouped into three per cage in an air conditioned room at 22±2° C. with a 12 h-light:12 h-dark cycle and fed a rat and mouse breeding diet (Special Diet Services, Witham, UK) and tap water ad libitum. They were administered ZAG (35 μg) in PBS (100 μl) b.d. by i.v. administration and body weight and food and water intake were monitored daily. Control mice received PBS alone. Body temperature was measured daily by the use of a rectal thermometer (RS Components, Northants, UK). All animal experiments were carried out in accordance with the U.K. Animals (Scientific Procedures) Act 1986.
After 21 days, the plasma metabolite levels in the ob/ob mice were observed (Table 2), with monitored parameters shown in Table 3. […] It was noted that there is much more insulin in the pancreas in ZAG treated animals showing the drop in plasma insulin, which is not due to lower insulin production (e.g., as would happen with a toxin to pancreatic beta cells), but rather due to the fact that less insulin is needed to control blood glucose in the ZAG treated animals.

[5] = tested on: ob/ob mice; assay: Insulin tolerance test in ob/ob mice administered ZAG for 3 days; type: in vivo, mouse
Method: An insulin tolerance test was also carried out in ob/ob mice administered ZAG for 3 days (FIG. 23). Animals were administered two doses of insulin (10 and 20 U/kg) by i.p. injection and blood glucose was measured over the next 60 min. […] The glucose disappearance curve for 20 U/kg+PBS was almost identical to 10 U/kg+ZAG, so at this dose level ZAG is reducing the requirement for insulin by 50%, but this can be overcome by giving more insulin.

[6] = 50 ug p.o. daily in drinking water, 8 days

B1: ZAG: recombinant full length human zinc-α2-glycoprotein (SEQ ID NO: 1) secreted by transfected HEK293F cells; lipid mobilizing factor (protein, listed as Homo sapiens)
chain: QENQDGRYSLTYIYTGLSKHVEDVPAFQALGSLNDLQFFRYNSKDRKSQPMGLWRQVEGMEDWKEDSQLQKAREDMETLKDIVEYYNDSNGSHVLQGRFGCEIENNRSSGAFWKYYYDGKDYIEFNKEIPAWVPFDPAAQITKQKWEAEPVYVQRAKAYLEEECPATLRKYLKYSKNILDRQDPPSVVVTSHQAPGEKKKLKCLAYDFYPGKIDVHWTRAGQVQEPELRGDVLHNGNGTYQSWVVVAVPPQDTAPYSCHVQHSSLAQPLVVPWEAS
blood glucose levels in glucose tolerance test ([1]; fed ob/ob mice, after 3 days of ZAG): only a small rise
plasma insulin levels in glucose tolerance test ([1]; ob/ob mice, 60 min of observation): significantly lower
outcome of oral ZAG [2, 6]: weight loss, increase in body temperature and a lowering of urinary glucose occurred
rhZAG in serum after oral administration [2, 6]: absence of rhZAG in serum
endogenous murine ZAG after oral rhZAG ([2]; 50 ug p.o. daily, 8 days): increase in murine ZAG in serum and WAT
body weight lost ([2]; p.o. daily, half way through the extended study): 13.5%
persistence of orally administered rhZAG in the stomach ([2]; p.o., ob/ob mice): ≥ 24 h
time before 50% reversion of urinary glucose to control after treatment stop ([2]; recovery group): 12 days
effect of freeze-thawing on binding to β2-AR [3]: eliminated binding
weight of the gastrocnemius muscles ([4]; ob/ob mice): 0.7 ± 0.1 g
weight of brown adipose tissue ([4]; ob/ob mice (FIG. 7)): 0.52 ± 0.08 g
BAT weight ([4]; ob/ob mice, Day 21): 0.41 ± 0.35 g
Gastrocnemius weight ([4]; ob/ob mice, Day 21): 0.39 ± 0.12 g
Glucose (plasma) ([4]; ob/ob mice, Day 21): 15.2 ± 2.1 mmol/L
Glycerol (plasma) ([4]; ob/ob mice, Day 21): 450 ± 36.2
Insulin (plasma) ([4]; ob/ob mice, Day 21): 28.5 ± 0.34 ng/mL
Insulin Pancreas ([4]; ob/ob mice, Day 21): 14.5 ± 2.5 pg/g pancerase
NEFA (plasma) ([4]; ob/ob mice, Day 21): 0.22 ± 0.06 mEq/l
Soleus weight ([4]; ob/ob mice, Day 21): 0.18 ± 0.07 g
Triglycerides (plasma) ([4]; ob/ob mice, Day 21): 0.89 ± 0.08 mmol/L
blood glucose ([4]; ob/ob mice, Day 21): 15.2 mM
Finish weight ([4]; ob/ob mice, Day 21, in g): 83.95 ± 2.2
peak body temperature ([4]; ob/ob mice, just before maximum weight loss): 38.1 °C
reduction of the requirement for insulin ([5]; 10 U/kg insulin+ZAG vs 20 U/kg+PBS): 50%
sensitivity to insulin ([5]; insulin 10 U/kg i.p.): increased sensitivity to insulin
